From patent publication US20160264650A1 (Regeneron, published 2016)
Read-outs that look alike come from different tables or passages of the source.

B1: H1H3354P (antibody, V domains shown)
VH: QVQLQQSGPGLVKPSQTLSLTCAISGDSVSSNSAAWNWIRQSPSRGLEWLGRTYYRSKWYHDYAFSVKSRILINPDTSKNLFSLQVNSVTPEDTAVYYCARDRRSYFDYWGQGTLVTVSS
VL: EIVLTQSPATLSLSPGERATLSCRASRSVSSSLAWYQQKPGQAPRLLIYDASNRATGIPARFSGGGSGTDFTLTISSLEPEDFAVYYCQQRNNWPPTFGQGTKLEIKR
B2: H2M3124N (antibody, V domains shown)
VH: EIQLIESGGDMVQPGGSLRLSCAASGISLNSYEMNWVRQTPGMGLEWISHISSSGTSIYYANSVKGRFTIFRDSAKNSLLLQMNSLRAEDTAIYYCARERYDHSGYYYLGMDVWGLGTTVTVSS
VL: DIQMTQSPSTLSASLGDRVTITCRASQNIDNWMAWYQQKVGKAPKLLIYRASTLETGVPSRFGGSGFGTEFTLTISSLQPGDFATYYCQEYNSYFRTFGQGTKVEIK
notes: also called H2aM3124N; H1M3124N
B3: H1H3325P (antibody, V domains shown)
VH: EVQLVESGGGLVQPGGSLRLSCAASGFTFNSFVMSWVRQAPGKGLEWVSAISGYGGSTYYADSMKGRFTVSRDNSKNTLYLQMNSLRAEDTAVYYCAKDHKDFYASGSYFNRDYYYGMDVWGQGTTVTVSS
VL: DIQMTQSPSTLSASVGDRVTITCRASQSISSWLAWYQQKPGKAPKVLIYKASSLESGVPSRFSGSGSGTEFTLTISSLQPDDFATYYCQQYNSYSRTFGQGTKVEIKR
B4: H2M3121N (antibody, V domains shown)
VH: EVQLVESGGDLVQPGGSLRLSCAASGVTFRTYEMNWVRQAPGKGLEWISHISSSGDIIYYTKSVKGRFTISRDNAKNSLFLQMTSLRAEDTAVYYCARERYSQYGYYYFGMDVWGQGTTVTVSS
VL: DIQMTQSPSTLSASIGDRVTITCRASQNTDKWMAWYQQKAGKAPKLLIYKASILESGVPSRFSGSGSGTEFTLTISSLQPDDFATYYCQEYNTYFRAFGQGTKVETR
notes: also called H2aM3121N; H1M3121N
B5: H1H3335P (antibody, V domains shown)
VH: EVQLVESGGGLVRPGGSLRLSCAASGFTFRIYAMSWVRQAPGKGLEWVSGISGSGDNTYYTDSVKGRFIISRDNSKSTLYLQMNSLRAEDTAVYYCARGWELLNYWGQGTLVTVSS
VL: DIQMTQSPSSLSAFVGDRVTITCRASQDISNHLAWFQQKPGKVPKSLIYAASSLQSGVPSKFSGSGSGTDFTLTISSLQPEDFATYYCQQYGLYPPTFGPGTKVDIKR

Legend:
[1] = target: T1, Clostridium difficile toxin B, soluble full-length (TechLab) (Clostridium difficile, UniProt P18177 2-2366); experiment: SPR Biacore T200, 37C, mAb capture
T1 construct: also called tcdB

CBD-toxin A-Fc [2] = target: T2, CBD-toxin A-Fc (Clostridium difficile, UniProt P16154 1848-2710); experiment: SPR Biacore, mAb captured, 100 nM CBD-A-Fc flowed
T2 construct: also called CBD-A; C-term Toxin A

CBD-toxin A-Fc [3] = target: T2, CBD-toxin A-Fc; experiment: SPR Biacore, CBD-A-Fc captured, 500 nM mAb flowed
[4] = target: T3, C-term receptor Binding Domain (CBD) of toxin B (Clostridium difficile, UniProt P18177 1851-2366); experiment: SEC (Superose 6) of CBD and mAb mixture
T3 construct: also called CBD-B

CBD-toxin B-Fc [5] = target: T4, CBD-toxin B-Fc (Clostridium difficile, UniProt P18177 1851-2366); experiment: SPR Biacore, mAb capture and CBD-Fc capture formats
T4 construct: also called CBD-B; C-term Toxin B

CBD-toxin A-Fc [6] = target: T2, CBD-toxin A-Fc; experiment: as above
[7] = target: T5, Clostridium difficile toxin A, soluble full-length (TechLab) (Clostridium difficile, UniProt P16154 1-2710); experiment: cell-based or functional assay
[8] = target: T6, C-term receptor Binding Domain (CBD) of toxin A (Clostridium difficile, UniProt P16154 1848-2710); experiment: SEC (Superose 6) of CBD and mAb mixture
T6 construct: also called CBD-A; recombinant CBD of toxin A

[9] = target: T1, Clostridium difficile toxin B, soluble …; experiment: SPR Biacore T200, 37C, mAb capture; remark: listed apart in the source
[10] = target: T5, Clostridium difficile toxin A, soluble …; experiment: SPR Biacore T200, 37C, mAb capture
CBD-toxin B-Fc [11] = target: T4, CBD-toxin B-Fc; experiment: SPR Biacore, CBD-B-Fc captured, 500 nM mAb flowed
[12] = target: T5, Clostridium difficile toxin A, soluble …; experiment: SPR Biacore T200, 37C, mAb capture; remark: listed apart in the source
[13] = target: T1, Clostridium difficile toxin B, soluble …; experiment: cell-based or functional assay

Binder | binding (RU) (CBD-toxin A-Fc [2]) | binding (RU) (CBD-toxin A-Fc [3]) | binding result [4] | binding result (CBD-toxin B-Fc [5]) | binding result (CBD-toxin A-Fc [6]) | IC50, Vero cell viability (neutralization), Trial 1, 32 pM Toxin A [7] [pM] | IC50, Vero cell viability (neutralization), Trial 2, 32 pM Toxin A [7] [pM] | binding result [8] | Kd [9] [nM] | T½ [9] [h] | koff [9] [s⁻¹] | kon [9] [M⁻¹ s⁻¹] | Kd [10] [nM] | T½ [10] [h] | koff [10] [s⁻¹] | kon [10] [M⁻¹ s⁻¹] | binding (RU) (CBD-toxin B-Fc [11]) | also measured
B1 | -19 | -2 | no binding (tested: CBD at ~500 nM, CBD:Mab 1:5 and 1:20) |  |  |  |  |  |  |  |  |  |  |  |  |  |  | binding result [1]: no binding (tested: toxin at 5 to 10 nM)
B2 | 0 | 29 |  | no binding | no binding | 41 | 21 | no binding (tested: CBD at ~500 nM, CBD:Mab 1:5 and 1:20) | ≤ 0.00302 | 192 | ≤ 1e-06 | 331000 | 0.174 | 0.967 | 0.000198 | 1.14e+06 |  | 
B3 | 17 | 3 |  |  | no binding |  |  | no binding (tested: CBD at ~500 nM, CBD:Mab 1:5 and 1:20) |  |  |  |  |  |  |  |  | -8 | IC50, Vero cell viability (neutralization), Trial 4, 32 pM Toxin A [7]: 33 pM; Kd [12]: 0.105 nM; T½ [12]: 3.48 h; koff [12]: 5.51e-05 s⁻¹; kon [12]: 527000 M⁻¹ s⁻¹
B4 | 0 | 23 |  | no binding | no binding | 65 | 35 | no binding (tested: CBD at ~500 nM, CBD:Mab 1:5 and 1:20) | 1.24 | 2.53 | 7.58e-05 | 61100 | 0.172 | 1.15 | 0.000166 | 969000 |  | 
B5 | 13 | 5 | no binding (tested: CBD at ~500 nM, CBD:Mab 1:5 and 1:20) |  | no binding |  |  |  |  |  |  |  |  |  |  |  | -6 | IC50, Vero cell viability (neutralization), Trial 1, 0.1 pM Toxin B [13]: 730 pM; IC50, Vero cell viability (neutralization), Trial 2, 0.1 pM Toxin B [13]: 380 pM; IC50, Vero cell viability (neutralization), Trial 3, 0.03 pM Toxin B [13]: 120 pM; Kd [1]: 2.34 nM; T½ [1]: 0.467 h; koff [1]: 0.000414 s⁻¹; kon [1]: 177000 M⁻¹ s⁻¹
